The DeepSol protein solubility set

Test: soluble on expression in E. coli; label from the status in PepcDB or PDB records

Row | Sequence | soluble on expression in E. coli
1 | MGSDKIHHHHHHMTARWRSANGRPAPTRVEVVSDSLTADDANRMASQGIAMLWQGDFHNARQILNAMDRRIGAGKKETAATPAEKFYRHRQSASHRARILGLLLIPLDPGPVVPLRRAPDIRQAAAGAYGDIGEPSVVSLHELVGAIGAHEWRRNGVYVDALEGRIHPHYGTFFPTRSEYVDLVAAAALPSDTLAFDVGTGTGVLAAVLARRGVRSVVATDNEPRAIACAAENFRNLGVQDRAEAVLTDMFPPGRAPLIVCNPPWIPATPHSSLDSAVYDPGSRMLFRFLNELSDHLEPGGEGWLVLSDLAEHLGLRSRGDLLAAIEAAGLKVVERLDTKPTHPKASDRDDPLFEARTAEVTSLWRLVPR | not soluble
2 | MVIDFNRLNPGSTPATTGRTGSTAAGRPDATGADKAGQAATSAPKSGESVQISETAQNMQKVTDQLQTLPVVDNDKVARIKQAIADGTYQVDSERVASKLLDFESQR | not soluble
3 | MSLIKFNIAQWRAWAPGLESVDAWQAWSRQPALPENSDAAPDVSFLPAMQRRRLSRLARMAFSVGWPLAEGLEQLPLVFISRHGETPRTFEILSDLAAEQPLSPTQFSLSVHNAVIGLWSIMRGETSEMTALAAAGDGLEHGLLEAATLLADGAPHVLLVITEEQPPEAYASWIDDVPFPYALGLLLTPGDDWQLSLGSHDGQTPRAQWPHALNLLRTLLGAQTFCQHAWMNRVWTWQRNHEGHHHHHH | soluble
4 | GILELAGTVGCVGPRTPIAYMKYGCFCGLGGHGQPRDAIDWCCHGHDCCYTRAEEAGCSPKTERYSWQCVNQSVLCGPAENKCQELLCKCDQEIANCLAQTEYNLKYLFYPQFLCEPDSPKCD | soluble
5 | MLIPGAHYRGDVPMYPASVVKLFYLVACHEWLHSGMLQPDAELERAMRDMIVDSSNDATSLVVDMLTGTTSGPVLPPEPFRTWQYQRNIVNRYFQSLGWPELTQINVNQKTWCEGPYGREQEFVGRDRQNANRLTTNATAKLIHSIVGGVAVSASASQGMMELMERSLDPELLAQDPENQVQGFLGEGLPPGAKLWSKAGLTSWVRHDAAYIELPDRCPYTLVVFMENSTASKNTEVLPFISRQIASGILEHHHHHH | not soluble
6 | MAHHHHHHMEKNQNDKSNKNDIIHMNDKSGNYDKNNINNFIDKNDEHDMSDILHKINNEEKKYEEIKSYSECLELLYKTHALKLGLDNPKKLNESFGHPCDKYKTIHIAGTNGKGSVCYKIYTCLKIKKFKVGLFSSPHIFSLRERIIVNDEPISEKELIHLVNEVLNKAKKLYINPSFFEIITLVAFLHFLNKKVDYAIIETGIGGRLDATNILTKPEVIVITSIGYDHLNILGDNLPIICNEKIGIFKKDANVVIGPSVAIYKNVFDKAKELNCTIHTVVPEPRGERYNEENSRIALRTLEILNISIDYFLKSIIPIKPPLRIQYLATEQIQHIKKKFSPDNLEHNVQYPLAVILDVGHNETAIDRLCTDINYFHKGQNIRICISITKPRNLSVFHPFIAQFGDTLKDIFYLPSLNERTYDFEEIVEMLNNEEEIKNEIKELILSSSKKVGKWLAHEKQGNINEEDALKLYKRGCIPLIIKNAFLECCKDNSILLVCGTFFVFDEVLNVFDIHSDMQDTIFMNEPSLV | soluble
7 | MGSDKIHHHHHHMYPNLTSEQALLILQSARNPDKAYDLFAQAAEVRDKVFGKRLWWSSGSGGIFPCLVKPRCSYCTYYTEKLFPTDVLLTGLELIESLGIQQFHISGGTDLDEGYDEQLLELVQAIKTRSGLKLEINLGPSFRQETVLELKKLGIDSVTSSLECNTPAIFARAKPGDSLERRRELLHHCEEADMPSRSMMLLGLGETDQERIEHLFYLQQFKKLYQLRLSRFMPFPGTLYKDRSRCSPWDTALITAMARLILPNLEISLAAGNSNDDIPLWYLAGGGSQLLGVSITRKEPPATPDVDVYAIGEGAYVVDKRQQVARVLEGMNLEVTCEMPDYRALQSQF | not soluble
8 | MTPAELKRLYHIIKVQLEYGLDELLPDHQLTKAPLLMRKSLFWIKNQHPEKPLGERLRLALQELGPVWIKFGQMMSTRRDLFPPHIADPLALLQDQVAPFDGELAKQQMEKALGGPLENWFTEFDIKPLEHHHHHH | not soluble
9 | MGSDKIHHHHHHMNVPKAGKVICAGLGPGDPELMSVKSWRALQGATHVAYFRKAGRAGQARAIVEGLLPAGVTEYPMEYPVTTEIHFSDPEYNRQLAAFYDQWADTLAEIAATQTVVVLCEGDPFLYGSFMHLHTRLEGRAEVEIIPGITGMSGCWTATGQPITWGDDVLTVAMATLSEDELTQRIRQTDALVVMKIGRNLPKLRRALEAAGRLQDAWLVERGTMPAQTVQKLTDVDGEVPYFSIVILHGEGRRP | not soluble
10 | MQKKYYEDSHQDSYLLGVKEKDEVLLTALMRKIKNHTGDVYEIMGGPLVDFENENNNQIIAFFLKELHKYLKKQHAYYLRIVPNEKTQRVENNGKVVNYDLKNYSSLYFAEGFIYRSFEQVGYGFATPHYEYQKRIEGLNKKTLFQSYSKKTQYSIKKTYEFGITTRNISYDELEMFHENTTKTAKRLGFYDKELSYYQSVYRTFGDNAKFMIAEINLSDYIGHFQEIIRNLKDKIDQMILIDSKREKPTKTRQIKELRSQVEQHEKRIVQAKKLIEQYGKKINLAGALFFIQPQEVSYMFSYTNAEFKNFYGPYRTQADMLEFALKEKVPVYNFYGVSGDRSGHDGVYEFKKGFQGYMVDNMGAFILPINKFRYQFLQTIKKIIRRR | not soluble
11 | MSLRINLTSEKTLKEASTSMAPNVLKGNVIKNKAVASGKYVPFFGSSELSRFSAFHPSVLSEKYQRNYRPFLLGEAGTQSLTQAMVIHSMGDAIANKKAVFILSPQWFVKKGVPNDSFGAHYSQLQTYQWLANLTELTSGDQYLAQRLTKFPVVQKDKVLMETLANLQAGQLPQRSQRDYFIMNLRFLNREDELFSQIGMVSREPIVEKDMKQLPATYNFNELDQLAGKIAAKAINNNKFEISNGFYRQRIKPVLPKLAHSQKKWDYRFSPEYGDFQAALEQLAEKNVDVLFVIPPVNKRWSDYTGLSQDMLQQVARKLKYQLQEQGFTNIADFSTCSNERYFMADTIHLGWRGWLAVDRQVDEFMKQPASKKLAYQIDDRFYQTDWQQQNPLVLPQFEGHHHHHH | soluble
12 | MGSDKIHHHHHHMDDDSNQKPLFHMALGVLTSLTPPQHHIELVDEHFHDKINYDGDYDMVGITSRTIEATRAYEIADEFRKRGKTVVLGGLHISFNPEEAAAHADCIVVGEADNLWTTLLDDVANNRLKERYDSKDFPPVKAITPLDYARIAKASKRTKVDGTKSIPIYVTRGCPFNCSFCVTPNFTGKQYRVQDPKLLKHQIEEAKKYFFKANGKNSKPWFMLTDENLGINKKKLWESLDLLKECDITFSVFLSINFLEDPTTVKKLVDAGCNFVLAGLESIKQSTLEAYNKGHVNSAEKYSKIIEDCRKAGLNIQGNFLFNPAIDTFEDIDELVQFVKKNHIFMPIFQIITPYPGTQMYHEYRESGLITIEDWEKYNALHLVIKSDRYEPLLFQYKVLKSYVEVYTWKEILLRTLYNPRKLINLVTSIAFKKHLAAQLKAFERNHKMNPAMLSGVKPVMNG | not soluble
13 | EIAPLFTIENTVEEVEGMRPYTPLELAGRDIYVREGCYACHSQMIRTLRSDVERYGHYSLAAESMYDHPFQWGSKRTGPDLARIGGKYSDDWHVAHLEDPRALVPGSVMPGYAFLSATRLDTGHLPAALEALRRAGVPYTDAQIATAEQAAGWQADAEQAYESELQELFGDNVQLRDFDGRPGELTEMDALVAYLQVLGT | not soluble
14 | MRNFDLSPLYRSAIGFDRLFNHLENNQSQSNGGYPPYNVELVDENHYRIAIAVAGFAESELEITAQDNLLVVKGAHADEQKERTYLYQGIAERNFERKFQLAENIHVRGANLVNGLLYIDLERVIPEAKKPRRIEIN | not soluble
15 | MVRLEDYGTWDEALKRLEASRKALLALLREADPAWLSAPLREGAWTPLMVAEHVALVEDSTARVLRRLRRLAAGENLPPVPVKPGEFKDGKPQAPEGVRPKGGLSLEEVLALLDRARAFLLEEVAKADPQNPATFPHPFFGELNPLGWLRAAAYHEAHHLKALQASLPR | soluble
16 | MSHPVVIKENMTVYDAICTIFLEDVSTLFITNENNDFVGVCSRKDLLRASMIGEDIHTMPISVNMTRMPHVSYLKEQELVIYAANQMIDKEIDSLPIVRPKENDKFEVIGRISKTTITKLFVSLFKE | not soluble
17 | MGSDKIHHHHHHVIGKLTLDQLRVLVAVADTGSFTAASQAVGRAQSAVSQMMAALENAQGVQLFDRSSYRPMLTEAGRVLVAQARTTLAGASRFEAMAEHMRSGVEAELALAIDPLVPSAPFMQGLRDLSARYPDLSVSFSTEGLGGSLRRLRDGSASLGICTLLPTVPDDVVAYPLLQTAMTPVVAGNHPLASQDGPLQRGDLEPHVQLVLSDPVEPSGPNYGLTSARLWRFADLNRRLDFLLGGFGWCRMPEHLVADALADGRLVALDIKNDNAPQDGLPIYAAHARDRALGPAGRWFLDAMRECMAAA | not soluble
18 | MSAKPVIVGGGPAGMSAAMELARHGVECVLLDEASRVGGVVYRGPLREGVVLDYLGERYRENMQALHREFEQVRDRIDIRLNTRVVGGGEGELFALTPDERVEAVPFSQLLLAAGCHERSVPFPGWTLPGVIMLGGLQLQIKSGVVKPLGRTVLVGTGPLLPLVACQLHRAGVEVAGVYEASAFGRLAKETIALLNQPQLFLDGLSMVAYLKRHGIPLHYGWGVVEAHGDAELGEVTVAPYDAEWRADLTRSRRLPAQTLAVGYGFIPRTQLTQQMGLEHRYADDGYLKPVNDEWQRSSRGNIHLAGDIGGLRGGEAAMISGRIAALSMLLQLGKLDEQQALRQRQACLDQMASILRFRKGIDSFTRRGRGQLALPARDTVICRCEHATRQDIDTALEQGVNDLISLKMRTRVSMGDCQGKMCVGYCSDRLREHTGKRDVGWIRPRFPLDPLPFSAFSAIDAQQTEEILEHHHHHH | not soluble
19 | MQSITPPLIAVIGSDASGKSTVCEHLITVVEKYGAAERVHLGKQAGNVGRAVTKLPLMGKSLHKTIERNQVKTAKKLPGPVPALVITAFVARRLLRFRHMLACRRRGLIVLTDRYPQDQIPGAYDGTVFPPNVEGGRFVSWLASQERKAFHWMASHKPDLVIKLNVDLEVACARKPDHKRESLARKIAITPQLTFGGAQLVDIDANQPLEQVLVDAEKAITDFMTARGYH | not soluble
20 | MGSDKIHHHHHHMSLVRLQDVSVRFDNTQILREAFFRLEPRDRVGLIGKNGSGKTTMLQLILDRITPESGTVTVEPGTRIGYFSQFSELNGASTITDVLDGLFSEIKAVEAELASIDTAIAGDPAGAELDRLIARQAELFEDMDRLDGWDYPRRIDKVLTTLGFSDAHRVCAIDELSGGWRNRAALAKILLEDPDVLLLDEPTNFLDVAGVEWLESWFRDFKGAAIIVSHDRKFLDAVVTRIIEVENFHLHEYPGNFGEYIVQKQFRLKSLEQQFVHESELLAFEAEGIADRREAAKAASRGLGNQLAKIKKSRTPRPVDQIVTEIYGGLHVKDVLCRVEGLGKSYGDKALFTGLGFEIRRGNRIVVLGANGSGKSTLLKVLTGEEEADAGVVSWAKGPGFVSYNRMLEELDDADTVSHAVNALPDSLAFSATRKSVNRFLAMFQFSEADLKQKIGNLSGGQKARVAMAQCLLSGASVLLLDEPTNHLDLSSTQVMERALMHFPGAVVVVSHDRFFSEKIANRYLVFGADAALPGEVEVRAA | not soluble
21 | MFKKLFGKGKEVQKDIAIYAPLTGEFVKIEDIPDPVFAQKMMGEGFGINPTEGEVVSPIAGRVDNVFPTKHAIGLKADNGLELLVHIGLDTVQLDGEGFEVLVSSGDEVNVGDPLVRFNLEYINNNAKSVISPIIITNTDQAASINIYDENAVIKGETKVIDVTMN | not soluble
22 | TSQIRQNYSTEVEAAVNRLVNLHLRASYTYLSLGFFFDRDDVALEGVGHFFRELAEEKREGAERLLEFQNDRGGRALFQDVQKPSQDEWGKTQEAMEAALAMEKNLNQALLDLHALGSARADPHLCDFLESHYLDKEVKLIKKMGNHLTNLRRVAGPQPAQTGAPQGSLGEYLFERLTLKHD | soluble
